T1: androgen receptor, wild type, full length (UniProt P10275 1-920)
T1 construct: also called AR; wtAR
T1 sequence (looked up): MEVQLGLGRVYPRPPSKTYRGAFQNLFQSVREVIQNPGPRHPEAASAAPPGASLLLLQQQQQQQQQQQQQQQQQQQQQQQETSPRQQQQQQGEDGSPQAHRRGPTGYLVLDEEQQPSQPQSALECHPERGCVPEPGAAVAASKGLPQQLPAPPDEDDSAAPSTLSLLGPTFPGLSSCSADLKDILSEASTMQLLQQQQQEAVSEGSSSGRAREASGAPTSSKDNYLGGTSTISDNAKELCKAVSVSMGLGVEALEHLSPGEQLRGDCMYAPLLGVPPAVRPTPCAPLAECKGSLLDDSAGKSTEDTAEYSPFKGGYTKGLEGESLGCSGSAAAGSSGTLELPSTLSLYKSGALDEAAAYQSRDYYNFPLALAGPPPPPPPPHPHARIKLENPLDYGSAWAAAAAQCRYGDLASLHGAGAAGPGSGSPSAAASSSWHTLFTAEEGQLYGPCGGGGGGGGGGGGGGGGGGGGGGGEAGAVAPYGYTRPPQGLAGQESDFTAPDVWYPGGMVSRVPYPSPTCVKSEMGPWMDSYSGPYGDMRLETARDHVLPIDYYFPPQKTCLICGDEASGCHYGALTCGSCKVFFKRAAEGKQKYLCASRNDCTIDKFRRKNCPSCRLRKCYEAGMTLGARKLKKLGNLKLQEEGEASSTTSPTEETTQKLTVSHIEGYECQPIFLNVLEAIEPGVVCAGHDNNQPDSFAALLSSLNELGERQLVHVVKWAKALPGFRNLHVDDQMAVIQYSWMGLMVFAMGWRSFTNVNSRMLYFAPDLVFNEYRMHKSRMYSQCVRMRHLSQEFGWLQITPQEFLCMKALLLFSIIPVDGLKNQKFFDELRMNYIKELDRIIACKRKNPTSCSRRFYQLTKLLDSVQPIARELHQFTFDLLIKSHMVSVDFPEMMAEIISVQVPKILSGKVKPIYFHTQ


Legend:
[1] = target: T1, androgen receptor, wild type, full …; assay: GST pull-down of 35S-AR with PTEN deletion mutants
[2] = target: T1, androgen receptor, wild type, full …; assay: co-immunoprecipitation in PC-3(AR)2 cells overexpressing Flag-Smad3, Flag-Smad4 and AR
[3] = target: T1, androgen receptor, wild type, full …; assay: anti-Smad3 immunoprecipitation from PC-3(AR)2 cells, immunoblot for AR
[4] = target: T1, androgen receptor, wild type, full …; assay: co-immunoprecipitation in prostate cancer cells

Binder | binding result [2] | binding result [1] | other results
GST-PTEN-#1 (aa 1-107) (other, UniProt P60484 1-107, looked up, not shown: glutathione S-transferase (GST), pGEM-KG vector) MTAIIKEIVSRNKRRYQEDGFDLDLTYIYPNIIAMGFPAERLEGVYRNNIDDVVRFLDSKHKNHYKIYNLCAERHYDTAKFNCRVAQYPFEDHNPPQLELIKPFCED | – | no binding | –
N-terminal Flag-tagged, full-length Smad3 (other, human, UniProt P84022 1-425, looked up, Expressed in PC-3 or PC-3(AR)2 cells; also called Flag-Smad3; FLAG-Smad3; not shown: N-terminal Flag tag) MSSILPFTPPIVKRLLGWKKGEQNGQEEKWCEKAVKSLVKKLKKTGQLDELEKAITTQNVNTKCITIPRSLDGRLQVSHRKGLPHVIYCRLWRWPDLHSHHELRAMELCEFAFNMKKDEVCVNPYHYQRVETPVLPPVLVPRHTEIPAEFPPLDDYSHSIPENTNFPAGIEPQSNIPETPPPGYLSEDGETSDHQMNHSMDAGSPNLSPNPMSPAHNNLDLQPVTYCEPAFWCSISYYELNQRVGETFHASQPSMTVDGFTDPSNSERFCLGLLSNVNRNAAVELTRRHIGRGVRLYYIGGEVFAECLSDSAIFVQSPNCNQRYGWHPATVCKIPPGCNLKIFNNQEFAALLAQSVNQGFEAVYQLTRMCTIRMSFVKGWGAEYRRQTVTSTPCWIELHLNGPLQWLDKVLTQMGSPSIRCSSVS | binds | – | –
Smad3 (full length, untagged) (other, human, UniProt P84022 1-425, looked up, also called endogenous Smad3; [35S]-labeled Smad3) MSSILPFTPPIVKRLLGWKKGEQNGQEEKWCEKAVKSLVKKLKKTGQLDELEKAITTQNVNTKCITIPRSLDGRLQVSHRKGLPHVIYCRLWRWPDLHSHHELRAMELCEFAFNMKKDEVCVNPYHYQRVETPVLPPVLVPRHTEIPAEFPPLDDYSHSIPENTNFPAGIEPQSNIPETPPPGYLSEDGETSDHQMNHSMDAGSPNLSPNPMSPAHNNLDLQPVTYCEPAFWCSISYYELNQRVGETFHASQPSMTVDGFTDPSNSERFCLGLLSNVNRNAAVELTRRHIGRGVRLYYIGGEVFAECLSDSAIFVQSPNCNQRYGWHPATVCKIPPGCNLKIFNNQEFAALLAQSVNQGFEAVYQLTRMCTIRMSFVKGWGAEYRRQTVTSTPCWIELHLNGPLQWLDKVLTQMGSPSIRCSSVS | – | – | binding result [3]: binds
GST-PTEN-#3 (aa 253-403) (other, UniProt P60484 253-403, looked up, range 253-403; not shown: glutathione S-transferase (GST), pGEX-3x vector) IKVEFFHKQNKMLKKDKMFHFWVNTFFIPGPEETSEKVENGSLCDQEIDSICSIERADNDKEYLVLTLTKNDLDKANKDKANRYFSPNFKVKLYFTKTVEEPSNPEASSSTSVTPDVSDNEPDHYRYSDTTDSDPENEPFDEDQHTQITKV | – | no binding | –
PTEN (phosphatase and tensin homolog deleted on chromosome ten), wild type, full length (enzyme, Stood as in vitro expressed 35S-PTEN, as Dox-induced PTEN in LNCaP PTEN-C1 cells, as endogenous PTEN of CWR22 cells and as transfected PTEN in COS-1 cells; also called [35S]-PTEN; pCDNA3-PTEN) not shown | – | – | binding result [4]: binds
N-terminal Flag-tagged, full-length Smad4 (other, human, UniProt Q13485 1-552, looked up, Expressed in PC3-AR2 cells; also called Flag-Smad4; FLAG-Smad4; not shown: N-terminal Flag tag) MDNMSITNTPTSNDACLSIVHSLMCHRQGGESETFAKRAIESLVKKLKEKKDELDSLITAITTNGAHPSKCVTIQRTLDGRLQVAGRKGFPHVIYARLWRWPDLHKNELKHVKYCQYAFDLKCDSVCVNPYHYERVVSPGIDLSGLTLQSNAPSSMMVKDEYVHDFEGQPSLSTEGHSIQTIQHPPSNRASTETYSTPALLAPSESNATSTANFPNIPVASTSQPASILGGSHSEGLLQIASGPQPGQQQNGFTGQPATYHHNSTTTWTGSRTAPYTPNLPHHQNGHLQHHPPMPPHPGHYWPVHNELAFQPPISNHPAPEYWCSIAYFEMDVQVGETFKVPSSCPIVTVDGYVDPSGGDRFCLGQLSNVHRTEAIERARLHIGKGVQLECKGEGDVWVRCLSDHAVFVQSYYLDREAGRAPGDAVHKIYPSAYIKVFDLRQCHRQMQQQAATAQAAAAAQAAAVAGNIPGPGSVGGIAPAISLSAAAGIGVDDLRRLCILRMSFVKGWGPDYPRQSIKETPCWIEIHLHRALQLLDEVLHTMPIADPQPLD | binds | – | –

Source: patent US20040235717A1 (published 2004)
